Measured values reported in the supplement of paper PMC12042874.
± gives the uncertainty stated by the source.

Assay: amyloid nucleation score (Sup35N fusion, yeast selection) (log enrichment); library NNK3; higher = more nucleation; inactive = no reads after selection
Outline: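 For the nucleation score, DiMSum gave the log enrichment of output over input reads, centred on the mode score of non-aggregating sequences. Psi-negative yeast expressing Sup35N fused to peptides of 20 random codons were induced with 100 μM copper sulfate for 24 hours and grown 7 days at 30°C on medium lacking adenine and uracil. Input and output plasmid inserts were Illumina-sequenced, and sequences with under 100 input reads were excluded.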

| Substance | amyloid nucleation score |
| --- | --- |
| RRMPLWEVGFSQASLTRQ | inactive |
| RRNHMEFWTCSKYPRGLCGI | inactive |
| RRVFHQAFSGWSDLCIQRSG | inactive |
| RRVGSWTYVSFSDGI | 0.239 ± 0.41 |
| RRVLTARDWVCH | inactive |
| RRVMIALRYRRYGEFTEAYP | inactive |
| RRYEFLGGTEGSARRLDSKP | inactive |
| RRYYLRV | inactive |
| RSCSCLSRDKYNYLLIDSLV | inactive |
| RSDSADLIKG | inactive |
| RSDVI | inactive |
| RSELASLKGCDIELVFTYQR | inactive |
| RSFSLGRLSYYRGVTNILLA | inactive |
| RSIHYSYWCIYGNIRDTVRS | inactive |
| RSIITGVKVDLFNLAVTVFL | 2.62 ± 0.063 |
| RSILLEGVLAFM | inactive |
| RSILVFHSDRLKYGYLMIDV | inactive |
| RSKSF | inactive |
| RSLFHSAFEFRFLGLTECTY | inactive |
| RSLFSISAVIEICMLWSV | inactive |
| RSMKLPAKTASLLH | inactive |
| RSMRSQSSLQAHQSIRSEGR | inactive |
| RSPEDFSGTCHAGRCSWVHG | -0.044 ± 0.39 |

| Substance | amyloid nucleation score |
| --- | --- |
| RSRLCWED | -0.029 ± 0.5 |
| RSSSASR | inactive |
| RSSVYGQLILVPHYFDCLNL | inactive |
| RSVLLKVHTWITKSCFSTGL | inactive |
| RSVNGVTLGTARYHAVERVL | inactive |
| RSVQSVFNTIGCQTYVSPVW | inactive |
| RSWIGTKGPL | inactive |
| RSYGR | inactive |
| RTFVNGSAEYANASHWEYPN | inactive |
| RTFWNSYWTGMVLRADWIMR | inactive |
| RTLLGEEWLCSVEMEVVGGQ | inactive |
| RTLSNFSGKVVLLI | inactive |
| RTRFFSQFSSL | inactive |
| RTSVYAALSWGEAVLREVFE | inactive |
| RTVKNSRLGTMIVY | inactive |
| RTWDYVLLGLLLLDYYRILA | inactive |
| RTWIRAYVSMQFRMCQDTDV | inactive |
| RTWSAKGYDNIRDVGLNSES | inactive |
| RTYDVCQTRVCKRAKWEGDT | inactive |
| RTYMVII | inactive |
| RVCCVGYLSNLLTMKGTGID | 1.81 ± 0.059 |
| RVFGCKKGGSRLW | inactive |
| RVHFVYIRWFYVRRDGWFSG | inactive |

| Substance | amyloid nucleation score |
| --- | --- |
| RVIKVGHMFKWSRAVGGGKT | -0.514 ± 1.7 |
| RVIMKIIVTFTA | 0.832 ± 0.23 |
| RVIRHPAI | -0.461 ± 0.96 |
| RVKASSFQISMMTDALKFWC | inactive |
| RVKRYSMELGIFLDLRVT | inactive |
| RVLGKRGGRKH | inactive |
| RVRIKTWYRMMGYMLCWCEL | inactive |
| RVRVYYGQDWYYKMLLARTI | -0.379 ± 0.84 |
| RVTVPDVDCGKASWSPGKVC | inactive |
| RVYKSV | inactive |
| RWCMVIDSTNWCSCDRKHGA | 1.49 ± 0.13 |
| RWKMTCFSSYNG | inactive |
| RWSRGMVSNCRENATWYDAA | inactive |
| RWTNNRSEIGAPYGWPTAS | inactive |
| RYDLSVSIATMVNVYFLLRG | inactive |
| RYDTNSRVRIIVSNF | inactive |
| RYHYLSSLSMNVNTGELWMD | inactive |
| RYKAVRRKYPGCRLGWMRPL | inactive |
| RYKEFVGNSIRIPDTCLSCC | inactive |
| RYKGFINVLC | inactive |
| RYLLIPAVGLK | inactive |
| RYLPRTSFPTIL | inactive |
| RYSYLGVCIKMSRKVKCVVT | 0.086 ± 0.66 |

| Substance | amyloid nucleation score |
| --- | --- |
| RYTMAVWRLMSCNSVKSVAL | inactive |
| RYTWTTDYNVM | inactive |
| RYVLR | inactive |
| RYVRCNRMWIIDLDEHARGK | inactive |
| RYYNYVSHIPAHRAVTLSAT | inactive |
| RYYSDNDYAMQLLLEHTALY | inactive |
| SAGWMSTKVSVQLTNYPGLA | 1.33 ± 0.16 |
| SAIFDGEQERSRDMLL | inactive |
| SALPE | inactive |
| SASRKNNQDVCGNCAVVGEF | inactive |
| SAVRHRLWVVGLASTRLYEC | -0.24 ± 1.1 |
| SAVSTRW | inactive |
| SAWVIIIMLARYVAIS | inactive |
| SAYLELLLRSFAVICNLSLT | 2.31 ± 0.061 |
| SAYSSGLRSKAYLYTASCTP | inactive |
| SAYSVHLSSVHFELVVET | inactive |
| SAYYCLCMLMGHHWGRNELY | 0.277 ± 0.57 |
| SCAYGLGCMLMVKHN | inactive |
| SCDLFSC | inactive |
| SCECSSNMGEAFRKLVGTSA | inactive |
| SCFGECCI | inactive |
| SCFQQGNFWCSVFFNVGGQL | 2.64 ± 0.059 |
| SCFSSYCRYNLRLSWRQNFV | -0.474 ± 1 |

| Substance | amyloid nucleation score |
| --- | --- |
| SCGEYWPLLSFMNCWAP | inactive |
| SCGLGLLAVVEKCVVTHRFF | inactive |
| SCGLLWCD | -0.43 ± 1.2 |
| SCGTCKTSFIKR | inactive |
| SCIRNSLRLNSFSVFFLAFH | inactive |
| SCKFITFRGGQVQLVNDEGM | inactive |
| SCLFRILMQLSTTMNSSVFK | inactive |
| SCLRGNTAKFFSKVSRVCDK | 0.133 ± 0.98 |
| SCRLSISFTGAGNVRCAKMM | inactive |
| SCSWHFIFCCNGLHMSVKKR | 1.66 ± 0.084 |
| SCYDVFSFYPSPFCLTNSVA | inactive |
| SCYRVNLLGVYWRVMVDVLV | inactive |
| SDCCYRTYVEIQKWSLVF | inactive |
| SDCSIHKSGYVTDTACDVFD | inactive |
| SDDRIT | inactive |
| SDGHFLCV | inactive |
| SDITSHLRHSNASNGSWNWL | inactive |
| SEAMFSIVLKECNGGACR | inactive |
| SEARCA | inactive |
| SEASQRLLYTMVWTAHTQVM | inactive |
| SEFCSNFNQFGC | inactive |
| SELHRNRPTKLGFCRYESQV | inactive |
| SENICLYT | inactive |

| Substance | amyloid nucleation score |
| --- | --- |
| SETCWVIIYWYIGVKMFSRF | inactive |
| SEWKNTRNTHVLWYTSDSAT | inactive |
| SFERSSSSST | inactive |
| SFFLVSWLGALTVVIPVQ | inactive |
| SFFRNRGGEDFFISWWFENN | inactive |
| SFFVT | inactive |
| SFGILVYIRTAMPCTNIANY | inactive |
| SFGLWNLRTYTAVIASSWEL | inactive |
| SFGYLSAPRFIVGKVSHLGC | inactive |
| SFHASGQSSLYKKGDLSTCV | inactive |
| SFICGINNELVK | inactive |
| SFIKRVRDSMSRM | inactive |
| SFKSTSYIITFNWKIVAVWK | inactive |
| SFLARVFT | inactive |
| SFLPSNSFFKYQCVMWC | inactive |
| SFLSYCC | inactive |
| SFLYYRFVLVGIFLRVAGRF | inactive |
| SFNMDYHMWIEQGSRWVFTT | inactive |
| SFNNININIVVFNVAPFSVH | 2.51 ± 0.082 |
| SFNSVDTRLWTVPRWERMVN | inactive |
| SFPASFSYRNGFVWLNFWVV | inactive |
| SFPFDLFGNIVW | inactive |
| SFRGTSARYFMLVGVLGIFV | -0.2 ± 1.2 |

| Substance | amyloid nucleation score |
| --- | --- |
| SFRSAVRCTS | inactive |
| SFRSPMDIVLLFVMCSVLAR | inactive |
| SFTNFFNGSVGICFRCTLMC | 2.28 ± 0.052 |
| SFVQEMGDPPYHKQSQQLRS | inactive |
| SFYMPTQKLMLFIVVKVKAT | inactive |
| SGDNMPAWVDHMSCHKRWSG | -0.474 ± 1.1 |
| SGEYSQRKGSCKGHNGSSRS | inactive |
| SGGLRLLGKSLLWTAVCTNT | inactive |
| SGGLSSLILSCFHIFIIKTY | inactive |
| SGGYDQSQALNRLVGWRVYC | -0.301 ± 1 |
| SGIQVRGQTSIVLLNF | 2.41 ± 0.052 |
| SGNHLSWYGTIE | 1.26 ± 0.086 |
| SGPSGSRCGDITLDTPPVLL | inactive |
| SGRKR | inactive |
| SGSGFQLLDGLTTRFSVVTF | inactive |
| SGSNILMEWNCYRARLCRGS | inactive |
| SGSWHKH | inactive |
| SGTNNIVLLGHFVDFLEGVL | inactive |
| SGVCYFHARTRKSSSLRELV | 1.2 ± 0.12 |
| SGVLLFGVSRMHQR | 0.203 ± 0.28 |
| SGVWFVGRVCELHSWFINLS | inactive |
